Measured values published in publication doi:10.1101/2021.02.19.432017 (bioRxiv, 2021).

B2: Ras suppressor-1 (Rsu-1), wild type (natural protein)
chain: MSKSLKKLVEESREKNQPEVDMSDRGISNMLDVNGLFTLSHITQLVLSHNKLTMVPPNIAELKNLEVLNFFNNQIEELPTQISSLQKLKHLNLGMNRLNTLPRGFGSLPALEVLDLTYNNLSENSLPGNFFYLTTLRALYLSDNDFEILPPDIGKLTKLQILSLRDNDLISLPKEIGELTQLKELHIQGNRLTVLPPELGNLDLTGQKQVFKAENNPWVTPIADQFQLGVSHVFEYIRSETYKYLYGRHMQANPEPPKKNNDKSKKISRKPLAAKNR

Assays:
Assay in all cases: SEC
Kindlin-2 = target: T1, Kindlin-2 (human, UniProt Q96AC1 1-680)
T1 sequence: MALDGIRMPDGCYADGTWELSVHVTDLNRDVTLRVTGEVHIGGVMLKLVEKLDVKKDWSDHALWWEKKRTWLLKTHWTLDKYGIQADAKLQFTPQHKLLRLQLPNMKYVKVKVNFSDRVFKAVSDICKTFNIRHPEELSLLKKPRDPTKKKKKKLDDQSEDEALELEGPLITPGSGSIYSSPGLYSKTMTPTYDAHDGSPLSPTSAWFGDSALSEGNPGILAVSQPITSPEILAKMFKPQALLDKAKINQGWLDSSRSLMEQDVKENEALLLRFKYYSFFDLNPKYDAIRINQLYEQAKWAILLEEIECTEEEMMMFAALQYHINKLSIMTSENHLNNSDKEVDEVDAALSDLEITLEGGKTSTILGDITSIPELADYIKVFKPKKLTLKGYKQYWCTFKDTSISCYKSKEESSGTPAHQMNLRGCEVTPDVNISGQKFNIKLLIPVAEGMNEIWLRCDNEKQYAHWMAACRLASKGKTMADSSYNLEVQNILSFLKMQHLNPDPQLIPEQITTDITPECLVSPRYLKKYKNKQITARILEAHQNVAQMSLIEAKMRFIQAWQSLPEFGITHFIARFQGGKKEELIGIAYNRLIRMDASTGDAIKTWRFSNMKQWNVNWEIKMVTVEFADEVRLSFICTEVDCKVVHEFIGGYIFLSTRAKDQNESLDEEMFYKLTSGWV

[1] = target: PINCH-1 (residues 1-325), subunit of the IPP complex (human, UniProt P48059 1-325)
Sequence of PINCH-1 (residues 1-325), subunit of the IPP complex (P48059 whole entry, the tested form may be a part, one chain of several): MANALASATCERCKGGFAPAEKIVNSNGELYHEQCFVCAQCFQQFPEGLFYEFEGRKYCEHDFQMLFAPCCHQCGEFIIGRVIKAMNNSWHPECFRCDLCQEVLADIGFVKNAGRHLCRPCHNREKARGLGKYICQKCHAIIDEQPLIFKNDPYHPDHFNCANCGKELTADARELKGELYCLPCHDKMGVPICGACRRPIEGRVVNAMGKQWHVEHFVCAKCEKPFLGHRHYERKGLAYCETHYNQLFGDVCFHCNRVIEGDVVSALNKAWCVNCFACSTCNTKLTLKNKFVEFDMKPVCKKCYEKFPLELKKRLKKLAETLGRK

[2] = target: B2

B1: Integrin linked kinase (ILK), subunit of the IPP complex (natural protein)
chain: MDDIFTQCREGNAVAVRLWLDNTENDLNQGDDHGFSPLHWACREGRSAVVEMLIMRGARINVMNRGDDTPLHLAASHGHRDIVQKLLQYKADINAVNEHGNVPLHYACFWGQDQVAEDLVANGALVSICNKYGEMPVDKAKAPLRELLRERAEKMGQNLNRIPYKDTFWKGTTRTRPRNGTLNKHSGIDFKQLNFLTKLNENHSGELWKGRWQGNDIVVKVLKVRDWSTRKSRDFNEECPRLRIFSHPNVLPVLGACQSPPAPHPTLITHWMPYGSLYNVLHEGTNFVVDQSQAVKFALDMARGMAFLHTLEPLIPRHALNSRSVMIDEDMTARISMADVKFSFQCPGRMYAPAWVAPEALQKKPEDTNRRSADMWSFAVLLWELVTREVPFADLSNMEIGMKVALEGLRPTIPPGISPHVCKLMKICMNEDPAKRPKFDMIVPILEKMQDK
B1: binds (Kindlin-2).

B2: binds [1].

B3: PINCH-2 LIM5S (size exclusion) (domain or fragment)
chain: GDVCYNCSHVIEGDVVSALNKAWCVSCFSCSTCNSKLTLKNKFVEFDMKPVCKRCYEKFPLELKKRLKKLSELTSRK
B3: binds [2].
